In article PMC6520365, “Structural and functional characterization of the PDZ domain of the human phosphatase PTPN3 and its interaction with the human papillomavirus E6 oncoprotein” (Scientific Reports, 2019):

Tests used:
Settings in all cases: both partners purified
[1] = target: PTPN3-PDZ_(Next), PDZ domain of human PTPN3 extended at the N-terminus by 15 residues of its wild-type … (human, UniProt P26045-1 489-913, Start 489 is 504 minus the 15 residues printed. End 597 comes from the 6HKS entity (residues 6-114); its GAMGS tag remnant is left out.); assay: AUC; sedimentation velocity, PTPN3-PDZ_(Next) at 70 μM with PBM peptide, 20 °C, 42000 rpm
PTPN3-PDZ_(Next), PDZ domain of human PTPN3 extended at the N-terminus by 15 residues of its wild-type …, sequence (P26045 489-913): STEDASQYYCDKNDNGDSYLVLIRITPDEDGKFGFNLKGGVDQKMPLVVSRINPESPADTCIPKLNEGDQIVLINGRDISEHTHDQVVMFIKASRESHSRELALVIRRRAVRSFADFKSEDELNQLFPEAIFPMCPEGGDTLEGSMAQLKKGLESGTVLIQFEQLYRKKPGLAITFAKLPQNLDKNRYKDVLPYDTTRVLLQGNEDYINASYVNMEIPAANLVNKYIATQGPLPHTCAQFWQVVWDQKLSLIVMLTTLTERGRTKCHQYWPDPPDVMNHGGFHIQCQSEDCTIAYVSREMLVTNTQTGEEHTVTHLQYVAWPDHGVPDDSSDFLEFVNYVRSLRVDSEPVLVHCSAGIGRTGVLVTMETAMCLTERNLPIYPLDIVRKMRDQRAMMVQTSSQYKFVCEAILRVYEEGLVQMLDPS

[2] = target: T1, PDZ domain of the human protein tyrosine phosphatase non-receptor type 3 (PTPN3-PDZ) (human, UniProt P26045-1 504-913, Start 504 is printed. End 597 comes from the 6HKS entity and fits the printed 94 residues (89 non-Pro). GST removed by TEV; any residual tag residues left out.); assay: NMR titration; unlabeled peptide added stepwise to 15N-labeled PTPN3-PDZ at 95 or 149 μM; 1H,15N HSQC chemical shift perturbations; 15 °C; 50 mM Tris/HCl pH 7.5, 150 mM NaCl, 0.5 mM TCEP; KD from 8 to 14 fitted curves
[3] = target: HPV18E6 PBM peptide (C-terminal sequence of the human papillomavirus type 18 E6 protein) (human papillomavirus type 18); assay: as above
[4] = target: T1, PDZ domain of the human protein …; assay: AUC; sedimentation velocity, PTPN3-PDZ at 70 μM with HBVc PBM peptide, 20 °C, 42000 rpm

B1: HPV16E6 PBM peptide (C-terminal sequence of the human papillomavirus type 16 E6 protein) (peptide)
peptide: RSSRTRRETQL
notes: Only the last seven residues (TRRETQL) are seen in the crystal; also called PBM of HPV16 E6; source: synthetic peptide (Fmoc solid phase, Proteogenix)
stoichiometry N [1]: 1
Kd [2]: 53 µM

B2: PDZ domain of the human protein tyrosine phosphatase non-receptor type 3 (PTPN3-PDZ) (domain or fragment)
chain: GDSYLVLIRITPDEDGKFGFNLKGGVDQKMPLVVSRINPESPADTCIPKLNEGDQIVLINGRDISEHTHDQVVMFIKASRESHSRELALVIRRR
Kd [3]: 37 µM

B3: p38γ PBM peptide (C-terminal sequence of the MAP kinase p38γ) (peptide)
peptide: SWARVSKETPL
notes: also called MAPK12 PBM; source: synthetic peptide (Fmoc solid phase, Proteogenix)
Kd [2]: 26 µM

B4: HBVc PBM peptide (C-terminal sequence of the hepatitis B virus core protein) (peptide)
peptide: RRRRSQSRESQC
notes: also called HBV Core PBM; source: synthetic peptide (Fmoc solid phase, Proteogenix)
stoichiometry N [1]: 1
Kd [2]: 29 µM
stoichiometry N [4]: 1
